According to patent publication US7537795B2, “Transdermal drug delivery devices having coated microprotrusions” (Alza Corporation, priority 2000, dated 2009):

Experiments:
[1] = guinea pig, in vivo
[2] = Kinetics of drug absorption from hGH tip-coated microprotrusion array systems, plasma hGH by ELISA; format: in vivo, hairless guinea pigs
Method: However, on the microprotrusion itself, the coating was found unevenly distributed.
Systems remained on the skin for 5 seconds (n=3) or 5 minutes (n=5). A group of animals (n=5) received a subcutaneous injection of 10 μg hGH. Blood samples were collected at time intervals for plasma hGH determination by ELISA. The hGH dose delivered was extrapolated based on an area under the curve (AUC) calculation compared to IV administration of hGH. […] On average, 5 μg of hGH was delivered in each animal, which accounts for approximately 50% of the coated dose.

[3] = Ovalbumin delivery from tip-coated microprotrusion array systems, skin biopsy fluorimetry; format: in vivo, euthanized hairless guinea pigs
Method: The coating was limited to the first 150 μm of the microprojection.
The applied systems comprised a coated microprotrusion array, adhered to the center of a LDPE backing with an adhesive (7 cm^2 disc). […] At the end of the wearing time, the system was removed and the skin wiped clean of any residual drug. The total amount of ovalbumin delivered in the skin during these time intervals was determined by dissolving a 8 mm skin biopsy in hyamine hydroxide (10% in methanol). Quantitation was performed by fluorimetry. […] Close to 100% of the dose had been delivered after 1 hour application time (solid bar).

[4] = Ovalbumin absorption into the skin from dip-coated microprotrusion devices, skin biopsy fluorimetry; format: in vivo, hairless guinea pigs; settings: dip-coated device, 8 mm skin biopsy
Method: The feasibility of coating the microprotrusion devices with ovalbumin was evaluated. A coating solution comprising 200 mg/ml of fluorescein-tagged ovalbumin in water was prepared.
Microprotrusion application was performed using a spring loaded applicator which impacted the system against the animal's skin. […] The average total amount of ovalbumin delivered into the skin (Mavg) during these time intervals was determined by taking an 8 mm skin biopsy at the application site. The skin biopsy sample was then dissolved in hyamine hydroxide (diisobutylcresoxyethoxyethyl) dimethyl) benzylammonium hydroxide, 1 M in ethanol, sold by J. T. Baker (NJ, USA) and the amount of ovalbumin present was determined by fluorimetry. […] Although ovalbumin is not a pharmacological agent used in therapeutics, it is a good model for large potent pharmacologically active agents such as follicle stimulating hormone and erythropoietin.

[5] = Ovalbumin delivery from microprotrusion systems coated with 200, 50 and 10 mg/ml solutions; format: in vivo, hairless guinea pigs; settings: coating solutions 200, 50 and 10 mg/ml, device removed immediately after application
Method: An experiment similar to that described in Example 1 was performed in the HGPs using the identical microprotrusion systems which were coated with aqueous ovalbumin solutions having ovalbumin concentrations of 200, 50, and 10 mg/ml ovalbumin. In all groups the microprotrusion device was removed immediately after application. Application and analysis were performed identically to that described in Example 1.

For `NC(=O)CC[C@@H]1NC(=O)[C@H](Cc2ccccc2)NC(=O)[C@H](Cc2ccc(O)cc2)NC(=O)CCSSC[C@@H](C(=O)N2CCC[C@H]2C(=O)N[C@H](CCCN=C(N)N)C(=O)NCC(N)=O)NC(=O)[C@H](CC(N)=O)NC1=O` [desmopressin], the “Additional drug absorbed after the first two hours” value [1] was “no additional amount of drug was absorbed”, the “amount of desmopressin delivered versus Group B” value [1] was “did not increase significantly” and the “average delivery of desmopressin” value [1] was “about 5 μg”. It also gave an average desmopressin delivered [1] of 18 µg.

For “hGH: Human growth hormone, model for cytokines, particularly interferon”, the bioavailability ([2]; subcutaneous administration of 10 μg hGH) was 65%, the “hGH delivery, 5 seconds versus 5 minutes wearing times” value ([2]; tip-coated array) was “the same” and the “hGH delivered as share of the coated dose” value ([2]; tip-coated array, 5 seconds or 5 minutes wear) was “approximately 50%”. For the same molecule, the “hGH delivered in each animal, on average” value ([2]; tip-coated array, 5 seconds or 5 minutes wear, extrapolated from AUC compared to IV) was 5 µg.

B1: ovalbumin: a 45,000 Dalton polypeptide containing an oligosaccharide side chain; model for large pharmacological agents; fluorescein/FITC-tagged in delivery studies (protein, UniProt P01012 2-386, looked up)
Ovalbumin: GSIGAASMEFCFDVFKELKVHHANENIFYCPIAIMSALAMVYLGAKDSTRTQINKVVRFDKLPGFGDSIEAQCGTSVNVHSSLRDILNQITKPNDVYSFSLASRLYAEERYPILPEYLQCVKELYRGGLEPINFQTAADQARELINSWVESQTNGIIRNVLQPSSVDSQTAMVLVNAIVFKGLWEKAFKDEDTQAMPFRVTEQESKPVQMMYQIGLFRVASMASEKMKILELPFASGTMSMLVLLPDEVSGLEQLESIINFEKLTEWTSSNVMEERKIKVYLPRMKMEEKYNLTSVLMAMGITDVFSSSANLSGISSAESLKISQAVHAAHAEINEAGREVVGSAEAGVDAASVSEEFRADHPFLFCIKHIATNAVLFFGRCVSP
modifications: fluorescein/FITC label
notes: a 45,000 Dalton polypeptide containing an oligosaccharide side chain; model for large pharmacological agents; fluorescein/FITC-tagged in delivery studies
With B1 the ovalbumin dose delivered ([3]; 5 seconds wearing time) was “more than 80%”, the ovalbumin dose delivered ([3]; 1 hour application time) was about 100% and the ovalbumin delivered intracutaneously ([4]; 5 second piercing) was “about 25 μg”. For the same molecule, the ovalbumin delivered intracutaneously ([4]; 1 hour application period) was “up to 80 μg” and the “delivery of ovalbumin as a function of amount coated” value [5] was “could be controlled by controlling the amounts coated on the microprotrusions”.
